Measured values as given in publication PMC9911985 (Journal of Molecular Biology, 2023).
Where no end group is shown, it is not given here. MBP = not defined here

Target: the molecule itself
Test: SEC

## {6xHis-MBP}-SCILLYVVFQKLSARLRALR (domain or fragment, reading uncertain) [6xHis-MBP-selenos 40–59]
  binding result: binds
